Measurements published in US20170165339A1.

What follows are binders tested against HLA-A*24 (human) (assay: UV peptide-exchange ELISA, yield grade).

| Binder | peptide exchange yield |
| --- | --- |
| RYLNKAFHI [… (SEQ ID NO: 284)] | 50 to 75% |
| TYIKPISKL [… (SEQ ID NO: 273)] | 50 to 75% |
| VFQNFPLLF [… (SEQ ID NO: 184)] | > 75% |
| VYVSDIQEL [… (SEQ ID NO: 288)] | 50 to 75% |
| QYSSVFKSL [… (SEQ ID NO: 216)] | > 75% |
| VYGFQWRHF [… (SEQ ID NO: 276)] | > 75% |
| IYDDSFIRPVTF [… (SEQ ID NO: 180)] | 50 to 75% |
| EYQENFLSF [… (SEQ ID NO: 206)] | 50 to 75% |
| TYGDAGLTYTF [… (SEQ ID NO: 283)] | 50 to 75% |
| AYLHSHALI [… (SEQ ID NO: 274)] | > 75% |
| KYIPYKYVI [… (SEQ ID NO: 223)] | 50 to 75% |
| KYMVYPQTF [… (SEQ ID NO: 267)] | > 75% |
| IFPQFLYQF [… (SEQ ID NO: 186)] | > 75% |
| KYPVEWAKF [… (SEQ ID NO: 289)] | > 75% |
| WYVNGVNYF [… (SEQ ID NO: 189)] | 20 to 49% |
| KYTSWYVAL [… (SEQ ID NO: 228)] | > 75% |
| LYLDKATLI [… (SEQ ID NO: 198)] | 50 to 75% |
| KFVDSTFYL [… (SEQ ID NO: 282)] | > 75% |
| IFLDYEAGTLSF [… (SEQ ID NO: 227)] | > 75% |
| TYLRDQHFL [… (SEQ ID NO: 187)] | > 75% |
| GFFIFNERF [… (SEQ ID NO: 190)] | 50 to 75% |
| RYSTGLAGNLL [… (SEQ ID NO: 221)] | 50 to 75% |
| VHIPEVYLI [… (SEQ ID NO: 205)] | 50 to 75% |
| TYIESASEL [… (SEQ ID NO: 279)] | 50 to 75% |
| YYLEVGKTLI [… (SEQ ID NO: 211)] | > 75% |
| VFKASKITF [… (SEQ ID NO: 191)] | 50 to 75% |
| YYVYIMNHL [… (SEQ ID NO: 225)] | 50 to 75% |

| Binder | peptide exchange yield |
| --- | --- |
| LYHDIFSRL [… (SEQ ID NO: 271)] | > 75% |
| IYKVGAPTI [… (SEQ ID NO: 185)] | 50 to 75% |
| FYSRLLQKF [… (SEQ ID NO: 203)] | 50 to 75% |
| YFDKVVTL [YFDKVVTL (SEQ ID NO: 215)] | 20 to 49% |
| TYTTVPRVAF [… (SEQ ID NO: 172)] | > 75% |
| IYQLDTASI [… (SEQ ID NO: 182)] | 50 to 75% |
| EFGSLHLEFL [… (SEQ ID NO: 194)] | < 20% |
| RFHPTPLLL [… (SEQ ID NO: 193)] | > 75% |
| IFIEVFSHF [… (SEQ ID NO: 178)] | 50 to 75% |
| MYDSYWRQF [… (SEQ ID NO: 179)] | > 75% |
| RYPDNLKHLYL [… (SEQ ID NO: 280)] | > 75% |
| LYLKLWNLI [… (SEQ ID NO: 214)] | 50 to 75% |
| RYPDNLKHL [… (SEQ ID NO: 286)] | 20 to 49% |
| SYALLTYMI [… (SEQ ID NO: 192)] | > 75% |
| TYTQDFNKF [… (SEQ ID NO: 208)] | 50 to 75% |
| LYLDIINLF [… (SEQ ID NO: 181)] | > 75% |
| QYLENLEKL [… (SEQ ID NO: 224)] | 50 to 75% |
| RYISDQLFTNF [… (SEQ ID NO: 278)] | > 75% |
| VFTSTARAF [… (SEQ ID NO: 183)] | 50 to 75% |
| RYFKGLVF [RYFKGLVF (SEQ ID NO: 188)] | 50 to 75% |
| EYINQGDLHEF [… (SEQ ID NO: 275)] | 50 to 75% |
| VYPWLGALL [… (SEQ ID NO: 177)] | > 75% |
| QYLQDAYSF [… (SEQ ID NO: 272)] | > 75% |
| VYRDETGELF [… (SEQ ID NO: 226)] | 50 to 75% |
| EYPLVINTL [… (SEQ ID NO: 219)] | 50 to 75% |
| IYTMIYRNL [… (SEQ ID NO: 210)] | > 75% |
| FFPPTRQMGLLF [… (SEQ ID NO: 217)] | > 75% |
